{"source": "the RNAGym collection of RNA variant scans (doi:10.7554/elife.80360)", "parents": {"B1": {"name": "HDV Ribozyme (parent)", "chain": "GGCCGGCAUGGUCCCAGCCUCCUCGCUGGCGCCGGCUGGGCAACAUUCCGAGGGGACCGUCCCCUCGGUAAUGGCGAAUGGGACCCA"}}}
{"variants_of": "B1", "test": "self-cleavage, relative activity (ratio to wild type); higher = more cleavage; co-transcriptional"}
{"variant": "C3G G52A", "self-cleavage": 0.702}
{"variant": "C3G C44G", "self-cleavage": 0.0707}
{"variant": "C3G G73A", "self-cleavage": 0.211}
{"variant": "C3G G73U", "self-cleavage": 0.0583}
{"variant": "C4A A45U", "self-cleavage": 0.095}
{"variant": "C3U C58A", "self-cleavage": 0.818}
{"variant": "C3U C58G", "self-cleavage": 0.767}
{"variant": "C3U G52A", "self-cleavage": 0.896}
{"variant": "C3U G52U", "self-cleavage": 0.723}
{"variant": "C3A G82U", "self-cleavage": 0.0831}
{"variant": "C3A G82C", "self-cleavage": 0.056}
{"variant": "C3G C21G", "self-cleavage": 0}
{"variant": "C3G C21A", "self-cleavage": 0}
{"variant": "C3A G39A", "self-cleavage": 0.067}
{"variant": "C3U A16C", "self-cleavage": 0.437}
{"variant": "C3G G68A", "self-cleavage": 0.51}
{"variant": "C3U A56G", "self-cleavage": 0.831}
{"variant": "C3U G50A", "self-cleavage": 0.682}
{"variant": "C3G G59U", "self-cleavage": 0.899}
{"variant": "C3G G59A", "self-cleavage": 0.831}
{"variant": "C3U U12A", "self-cleavage": 0.0817}
{"variant": "C3U U12G", "self-cleavage": 0.429}
{"variant": "C3G G40C", "self-cleavage": 0.339}
{"variant": "C3G G40A", "self-cleavage": 0.575}
{"variant": "C3U", "self-cleavage": 0.802}
{"variant": "C3G", "self-cleavage": 0.753}
{"variant": "C3U C13A", "self-cleavage": 0.138}
{"variant": "C3G U46A", "self-cleavage": 0.253}
{"variant": "C3G U46C", "self-cleavage": 0.373}
{"variant": "C3U G5A", "self-cleavage": 0.123}
{"variant": "C3A G50C", "self-cleavage": 0.572}
{"variant": "C3U G54A", "self-cleavage": 0.633}
{"variant": "C3U G54C", "self-cleavage": 0.636}
{"variant": "C3G A70U", "self-cleavage": 0.636}
{"variant": "C3G A70G", "self-cleavage": 0.475}
{"variant": "C3G A87C", "self-cleavage": 0.861}
{"variant": "C3U C7G", "self-cleavage": 0}
{"variant": "C3U C7A", "self-cleavage": 0.205}
{"variant": "C3G G35U", "self-cleavage": 1.33}
{"variant": "C3G U9G", "self-cleavage": 0.789}
{"variant": "C3G U9A", "self-cleavage": 0.799}
{"variant": "C3G U72A", "self-cleavage": 0.237}
{"variant": "C3G U72C", "self-cleavage": 0.267}
{"variant": "C3A G80U", "self-cleavage": 0.0893}
{"variant": "C3U U20A", "self-cleavage": 0.0308}
{"variant": "C3A U12C", "self-cleavage": 0.0615}
{"variant": "C3G A77U", "self-cleavage": 0.0297}
{"variant": "C3G A77G", "self-cleavage": 0.237}
{"variant": "C3G C36U", "self-cleavage": 0.155}
{"variant": "C3G C36A", "self-cleavage": 0.0288}
{"variant": "C3U U72A", "self-cleavage": 0.684}
{"variant": "C3G C58G", "self-cleavage": 0.796}
{"variant": "C4A C44A", "self-cleavage": 0.148}
{"variant": "C3U C57G", "self-cleavage": 0.803}
{"variant": "C4A C19A", "self-cleavage": 0.0386}
{"variant": "C3U C63U", "self-cleavage": 0.645}
{"variant": "C3G A45G", "self-cleavage": 0.816}
{"variant": "C3G A45C", "self-cleavage": 0.113}
{"variant": "C3G A45U", "self-cleavage": 0.299}
{"variant": "C3U U46A", "self-cleavage": 0.628}
{"variant": "C3U U46G", "self-cleavage": 0.446}
{"variant": "C3U U46C", "self-cleavage": 0.567}
{"variant": "C3A G34U", "self-cleavage": 0.109}
{"variant": "C3A G34C", "self-cleavage": 0.0903}
{"variant": "C3G U12G", "self-cleavage": 0.32}
{"variant": "C3G U12A", "self-cleavage": 0.0462}
{"variant": "C3U C26G", "self-cleavage": 0.989}
{"variant": "C3U C85G", "self-cleavage": 0.87}
{"variant": "C3U A8U", "self-cleavage": 0.656}
{"variant": "C3U A8G", "self-cleavage": 0.554}
{"variant": "C4A A83G", "self-cleavage": 0.234}
{"variant": "C4A A83U", "self-cleavage": 0.0959}
{"variant": "C4A A83C", "self-cleavage": 0.232}
{"variant": "C3U U69A", "self-cleavage": 0.831}
{"variant": "C3G C24A", "self-cleavage": 0}
{"variant": "C3G C24U", "self-cleavage": 0.196}
{"variant": "C3G C24G", "self-cleavage": 0.102}
{"variant": "C3G G82C", "self-cleavage": 0.0923}
{"variant": "C3A G38C", "self-cleavage": 0}
{"variant": "C3G U37A", "self-cleavage": 0}
{"variant": "C3G U37G", "self-cleavage": 0.123}
{"variant": "C3G C19U", "self-cleavage": 0.158}
{"variant": "C3G C19G", "self-cleavage": 0.0326}
{"variant": "C4A C36G", "self-cleavage": 0.0875}
{"variant": "C4A C36A", "self-cleavage": 0.0314}
{"variant": "C4A A78G", "self-cleavage": 0.147}
{"variant": "C3U C62U", "self-cleavage": 0.762}
{"variant": "C3U C62A", "self-cleavage": 0.973}
{"variant": "C3G C13G", "self-cleavage": 0.0504}
{"variant": "C3G C13A", "self-cleavage": 0.0545}
{"variant": "C3U C18U", "self-cleavage": 0.43}
{"variant": "C3U C18A", "self-cleavage": 0.0782}
{"variant": "C3G U27C", "self-cleavage": 0.133}
{"variant": "C3U G17A", "self-cleavage": 0.361}
{"variant": "C3G C64A", "self-cleavage": 0.528}
{"variant": "C3G C64U", "self-cleavage": 0.726}
{"variant": "C3G C64G", "self-cleavage": 0.546}
{"variant": "C3A G40A", "self-cleavage": 0.412}
{"variant": "C3U G55A", "self-cleavage": 0.763}
{"variant": "C3A G54A", "self-cleavage": 0.369}
{"variant": "C4A C84A", "self-cleavage": 0.192}
{"variant": "C4A C84G", "self-cleavage": 0.138}
{"variant": "C3U U9G", "self-cleavage": 0.942}
{"variant": "C3U U9C", "self-cleavage": 0.95}
{"variant": "C3G G17A", "self-cleavage": 0.102}
{"variant": "C3G G17U", "self-cleavage": 0.073}
{"variant": "C3G C26G", "self-cleavage": 0.753}
{"variant": "C4A A43C", "self-cleavage": 0}
{"variant": "C3A U47G", "self-cleavage": 0.237}
{"variant": "C3A U47A", "self-cleavage": 0.429}
{"variant": "C3A G76C", "self-cleavage": 0.604}
{"variant": "C3A G76U", "self-cleavage": 0.773}
{"variant": "C4A C58U", "self-cleavage": 0.424}
{"variant": "C4A C58G", "self-cleavage": 0.259}
{"variant": "C3U G82C", "self-cleavage": 0.0779}
{"variant": "C3A U27C", "self-cleavage": 0.217}
{"variant": "C3G U69A", "self-cleavage": 0.582}
{"variant": "C3G A71C", "self-cleavage": 0.261}
{"variant": "C3U G29U", "self-cleavage": 0.0723}
{"variant": "C3U G59U", "self-cleavage": 0.943}
{"variant": "C3U G59C", "self-cleavage": 0.688}
{"variant": "C3U G59A", "self-cleavage": 0.925}
{"variant": "C3G C75G", "self-cleavage": 0.0496}
{"variant": "C3A U23C", "self-cleavage": 0.46}
{"variant": "C4A A51C", "self-cleavage": 0.277}
{"variant": "C3A G67C", "self-cleavage": 0.61}
{"variant": "C3A G67U", "self-cleavage": 0.71}
{"variant": "C4A C64U", "self-cleavage": 0.277}
{"variant": "C4A A42C", "self-cleavage": 0.0332}
{"variant": "C4A A42U", "self-cleavage": 0.0997}
{"variant": "C3U C15U", "self-cleavage": 0.562}
{"variant": "C3A G35U", "self-cleavage": 1.14}
{"variant": "C3A G35A", "self-cleavage": 0.859}
{"variant": "C3U A78C", "self-cleavage": 0.04}
{"variant": "C3G U79C", "self-cleavage": 0.182}
{"variant": "C3G U79G", "self-cleavage": 0.262}
{"variant": "C3G C15U", "self-cleavage": 0.532}
{"variant": "C3U G81C", "self-cleavage": 0.0563}
{"variant": "C3U G81U", "self-cleavage": 0.187}
{"variant": "C3G C4G", "self-cleavage": 1}
{"variant": "C3G C4A", "self-cleavage": 0.0767}
{"variant": "C3G A83C", "self-cleavage": 0.191}
{"variant": "C3G C57U", "self-cleavage": 0.75}
{"variant": "C3G C57G", "self-cleavage": 0.891}
{"variant": "C3G C63A", "self-cleavage": 0.575}
{"variant": "C3G C63G", "self-cleavage": 0.307}
{"variant": "C3G C63U", "self-cleavage": 0.589}
{"variant": "C3A G81C", "self-cleavage": 0.0158}
{"variant": "C3A G81A", "self-cleavage": 0.054}
{"variant": "C3U G10C", "self-cleavage": 0.762}
{"variant": "C3U G10U", "self-cleavage": 0.372}
{"variant": "C3G C85U", "self-cleavage": 0.751}
{"variant": "C3G C85A", "self-cleavage": 0.858}
{"variant": "C4A C32G", "self-cleavage": 0}
{"variant": "C4A C32U", "self-cleavage": 0.0489}
{"variant": "C3G C61G", "self-cleavage": 0.561}
{"variant": "C3G U23G", "self-cleavage": 0.0791}
{"variant": "C3G U23A", "self-cleavage": 0.929}
{"variant": "C3G C33A", "self-cleavage": 0.0817}
{"variant": "C3G C33U", "self-cleavage": 0.194}
{"variant": "C3G C33G", "self-cleavage": 0.128}
{"variant": "C3U U37G", "self-cleavage": 0.0639}
{"variant": "C3U C49G", "self-cleavage": 0.68}
{"variant": "C3U C49A", "self-cleavage": 0.843}
{"variant": "C3G C48U", "self-cleavage": 0.736}
{"variant": "C3G C48G", "self-cleavage": 0.695}
{"variant": "C3G C48A", "self-cleavage": 0.698}
